Data reported in US20150267232A1, “IN VIVO AND IN VITRO CARBENE INSERTION AND NITRENE TRANSFER REACTIONS CATALYZED BY HEME ENZYMES” (California Institute of Technology, priority 2012, published 2015).

Tests used:
[1] = Whole-cell C—H amination of azide 1; format: cell-based, E. coli BL21(DE3); details: intact E. coli cells
Protocol: Reaction conditions were as follows: 2 mM azide 1, 25 mM glucose, E. coli BL21(DE3) cells in M9-N minimal medium (OD600=30), 2.5% DMSO, oxygen depletion system (100 U ml^−1 glucose oxidase, 1400 U ml^−1 catalase) reacted for 24 hours under anaerobic conditions at 298 K. Yields determined by HPLC quantification.
(§1) Whole cell reactions used E. coli BL21(DE3) cells containing P450 or P411 catalysts, which were expressed and prepared as described elsewhere (Coelho, P. S. et al., Highly efficient carbene transfer to olefins catalyzed in vivo. Submitted (2013)). Following expression, cells were resuspended to an OD600 of 30 in M9 salts lacking NH4Cl (M9-N), and then degassed by sparging with argon in a sealed 6 mL crimp vial for at least 0.5 h. Separately, glucose (250 mM dissolved in 1×M9-N, 40 μL, or multiples thereof) was degassed by sparging with argon for at least five minutes. The oxygen quenching mixture was added to sealed 2 mL crimp vials containing stir bars and the headspace of the vials was purged with argon for five minutes at which time glucose, and then cells were added by syringe. Substrate (80 mM arylsulfonyl azide, 10 uL in DMSO) was added via syringe, and the reactions were stirred at room temperature for 24 h under positive argon pressure.
as §1, with “E.” for “Whole cell reactions used E.”, “catalysts” for “catalysts, which”, “Coelho,” for “(Coelho,”, “μL” for “uL”, “pressure. Reactions were quenched in a manner identical to reactions containing purified enzymes as described above. For chiral HPLC, the reactions were extracted and purified in an identical manner as for reactions that employed purified enzymes. Lyophilized intact cells containing sucrose as a cryoprotectant were prepared as described elsewhere (Coelho, P. S. et al., Highly efficient carbene transfer to olefins catalyzed in vivo. Submitted (2013)). The resulting cell powder, containing expressed ABC-CIS (26 mg) were added along with a stir bar to a 2 mL crimp vial and then sealed. The headspace of the vial was degassed, oxygen quenching system (40 μL) was added via syringe, followed by degassed glucose (250 mM, 40 μL), M9-N (310 μL), and finally substrate (80 mM 1, 10 μL). Lyophilized cell reactions were stirred for 24 h at room temperature, then quenched and analyzed as described above. […]” for “pressure.”
The preparative reaction was scaled up proportionally from small-scale reactions. E. coli BL21 cells containing ABC-CIS (OD600 30, 90 mL in M9-N) were sparged with argon for 45 minutes in a round bottom flask (250 mL) containing a stir bar. Separately, glucose solution (250 mM, 11.6 mL) was sparged with argon in a conical flask. The oxygen quenching mixture (10×, 11.6 mL) was degassed in a conical flask that was placed under high vacuum until slight foaming occurred (1-2 s) and then back-filled with argon; this sequence was repeated several times. Sparged glucose solution was then added to the anaerobic cell suspension via syringe, followed by the oxygen quenching system. Finally, substrate 1 (80 mM, 2.9 mL DMSO) was added dropwise via syringe, and the reaction was stirred for 24 h at room temperature. To quench the reaction, dilute HCl (3 M, 8.7 mL) and acetonitrile (125 mL) were added. […]

[2] = Whole-cell C—H amination of azide 1; format: cell-based, E. coli BL21(DE3); details: lyophilized cells
[3] = OD600=30, 2 mM azide 1, 24 hours, anaerobic

B1: ABC-CIS: BM3-CIS + C400S (protein, listed as Bacillus megaterium)
chain: TIKEMPQPKTFGELKNLPLLNTDKPVQALMKIADELGEIFKFEAPGRVTRYLSSQRLIKEACDESRFDKNLSQALKFARDFAGDGLVTSWTHEKNWKKAHNILLPSFSQQAMKGYHAMMVDIAVQLVQKWERLNADEHIEVSEDMTRLTLDTIGLCGFNYRFNSFYRDQPHPFIISMVRALDEVMNKLQRANPDDPAYDENKRQFQEDIKVMNDLVDKIIADRKARGEQSDDLLTQMLNGKDPETGEPLDDGNIRYQIITFLIAGHEATSGLLSFALYFLVKNPHVLQKVAEEAARVLVDPVPSYKQVKQLKYVGMVLNEALRLWPTAPAFSLYAKEDTVLGGEYPLEKGDEVMVLIPQLHRDKTVWGDDVEEFRPERFENPSAIPQHAFKPFGNGQRASIGQQFALHEATLVLGMMLKHFDFEDHTNYELDIKETLTLKPKGFVVKAKSKKIPLGGIPSPSTEQSAKKVRKKAENAHNTPLLVLYGSNMGTAEGTARDLADIAMSKGFAPQVATLDSHAGNLPREGAVLIVTASYNGHPPDNAKQFVDWLDQASADEVKGVRYSVFGCGDKNWATTYQKVPAFIDETLAAKGAENIADRGEADASDDFEGTYEEWREHMWSDVAAYFNLDIENSEDNKSTLSLQFVDSAADMPLAKMHGAFSTNVVASKELQQPGSARSTRHLEIELPKEASYQEGDHLGVIPRNYEGIVNRVTARFGLDASQQIRLEAEEEKLAHLPLAKTVSVEELLQYVELQDPVTRTQLRAMAAKTVCPPHKVELEALLEKQAYKEQVLAKRLTMLELLEKYPACEMKFSEFIALLPSIRPRYYSISSSPRVDEKQASITVSVVSGEAWSGYGEYKGIASNYLAELQEGDTITCFISTPQSEFTLPKDPETPLIMVGPGTGVAPFRGFVQARKQLKEQGQSLGEAHLYFGCRSPHEDYLYQEELENAQSEGIITLHTAFSRMPNQPKTYVQHVMEQDGKKLIELLDQGAHFYICGDGSQMAPAVEATLMKSYADVHQVSEADARLWLQQLEEKGRYAKDVWAG
modifications: cytochrome P450NADPH-P-450 reductase precursor, cytochrome P450 (BM3), CYP102A1
notes: BM3-CIS + C400S
- Yield sulfonamide (%) [1, 3]: 50%
- Yield sultam (%) [1, 3]: 46%
- TTN ([1]; anaerobic, added glucose): 680
- % ee ([1]; (S − R)/(S + R)): 60%
- % ee [2]: 61%
- TTN [2]: 750
